In paper PMC7352323, “Regulation of Actin Filament Length by Muscle Isoforms of Tropomyosin and Cofilin” (International Journal of Molecular Sciences, 2020):

Key:
Details in all cases: both partners purified
[1] = biological target: T1, F-actin initially saturated with Tpm1.1 (rabbit | human, UniProt P68135 1-377; P09493 1-284); experiment: co-sedimentation; 0-10 µM cofilin-2 with 3 µM F-actin alone or initially saturated with 1 µM Tpm1.1 or Tpm3.12, 20 min at room temperature; 100 mM NaCl, 2 mM MgCl2, 1 mM DTT, pH 7.5; apparent Kapp from the Hill equation, K0 and ω from the McGhee and von Hippel linear lattice model
[2] = biological target: T2, F-actin (actin isolated from rabbit pectoral muscle, polymerised) (rabbit, UniProt P68135 1-377); experiment: as above
[3] = biological target: T3, F-actin initially saturated with Tpm3.12 (rabbit | human, UniProt P68135 1-377; P06753 1-285); experiment: as above
[4] = biological target: T2, F-actin (actin isolated from rabbit …); experiment: co-sedimentation; dissociation of tropomyosin from the filament by cofilin-2: 3 µM F-actin, 1 µM Tpm1.1 or Tpm3.12, 0-10 µM cofilin-2; tropomyosin/actin densitometric ratio against cofilin-2/actin molar ratio, fit to a modified Hill equation; same gels as for cofilin-2 binding in the presence of tropomyosin
[5] = biological target: T1, F-actin initially saturated with Tpm1.1; experiment: co-sedimentation; 0-10 µM cofilin-2 with 3 µM F-actin alone or initially saturated with 1 µM Tpm1.1 or Tpm3.12, 20 min at room temperature; 100 mM NaCl, 2 mM MgCl2, 1 mM DTT, pH 7.5; apparent Kapp from the Hill equation, K0 and ω from the McGhee and von Hippel linear lattice model; remark: listed apart in the source
[6] = biological target: T2, F-actin (actin isolated from rabbit …); experiment: as above; remark: listed apart in the source
[7] = biological target: T3, F-actin initially saturated with Tpm3.12; experiment: as above; remark: listed apart in the source

B1: mouse cofilin-2, recombinant, GST tag removed (natural protein)
chain: MASGVTVNDEVIKVFNDMKVRKSSTQEEIKKRKKAVLFCLSDDKRQIIVEEAKQILVGDIGDTVEDPYTSFVKLLPLNDCRYALYDATYETKESKKEDLVFIFWAPESAPLKSKMIYASSKDAIKKKFTGIKHEWQVNGLDDIKDRSTLGEKLGGSVVVSLEGKPL
notes: cofilin-2 (muscle isoform of cofilin), mouse cDNA; MW 18,500 Da printed; The printed MW of 18,500 Da fits the whole protein
K0 (affinity for an isolated binding site, linear lattice model) [1]: 0.17 µM⁻¹ | Ka [1]: 6.3e+06 M⁻¹ | ω (cooperativity coefficient, linear lattice model) [1]: 12 | K0 (affinity for an isolated binding site, linear lattice model) [2]: 0.01 µM⁻¹ | Ka [2]: 5.7e+06 M⁻¹ | ω (cooperativity coefficient, linear lattice model) [2]: 50 | K0 (affinity for an isolated binding site, linear lattice model) [3]: 0.21 µM⁻¹ | Ka [3]: 5.8e+06 M⁻¹ | ω (cooperativity coefficient, linear lattice model) [3]: 10 | cofilin-2/actin molar ratio at 50% dissociation of Tpm1.1 from F-actin [4]: 0.75 cofilin-2/actin | cofilin-2/actin molar ratio at 50% dissociation of Tpm3.12 from F-actin [4]: 0.71 cofilin-2/actin | stoichiometry N [5]: ~1 cofilin-2 per actin | stoichiometry N [6]: ~1 cofilin-2 per actin | stoichiometry N [7]: ~1 cofilin-2 per actin
